According to patent US20120045395, “MicroRNAs In Idiopathic Pulmonary Fibrosis” (UNIVERSITY OF PITTSBURGH - OF THE COMMONWEALTH SYSTEM OF …, published 2012):

Target: SMAD3 (UniProt P84022 P84022:1-425)
Assay: EMSA; 5 mM MgCl2, 200 mM NaCl, pH 7.6, poly(dI-dC), room temperature; band diminished by unlabeled competitor; probe described as upstream of the predicted site …
Conditions: tags: full length, Santa Cruz Biotechnology; label: 5'-Cy5
Protocol: Electrophoretic Mobility Shift Assay (EMSA): Cultured A549 cells at 60-70% confluence were treated with 2 ng/mL recombinant human TGFβ₁ (R&D Systems) for 60 minutes. Nuclear proteins were isolated using a standard rapid micropreparation technique described at Andrews N. C. and Faller D. V. Nucleic acids research (1991); 19:2499). The supernatant was reserved and snap frozen in liquid nitrogen as the nuclear protein fraction. Nuclear extracts and recombinant full length SMAD3 protein (Santa Cruz Biotechnology, Santa Cruz, Calif.) were incubated with 5′-end Cyanine-5 labeled probe and/or non-labeled competitor oligonucleotide for 20 minutes at room temperature in a binding buffer consisting of 20% glycerol, 5 mM MgCl₂, 2.5 mM EDTA, 25 mM DTT, 200 mM NaCl, 50 mM Tris HCl pH 7.6, and 0.25 mg/mL poly(dI-dC). The complementary oligonucleotides (5′-[…]-3′ (SEQ ID NO: 3), 5′-[…]-3′ (SEQ ID NO: 4)) were synthesized by Integrated DNA Technologies (Coralville, Iowa), and consisted of a sequence upstream of the predicted SMAD3/let7d binding site (GGCTGAGTA (SEQ ID NO:5)). […] The protein/DNA complexes were run on a 6% native polyacrylamide gel and visualized on a Typhoon imaging and documentation system using Cyanine-5 dye excitation and fluorescence settings.

SMAD3, sequence (P84022 whole entry, one chain of several): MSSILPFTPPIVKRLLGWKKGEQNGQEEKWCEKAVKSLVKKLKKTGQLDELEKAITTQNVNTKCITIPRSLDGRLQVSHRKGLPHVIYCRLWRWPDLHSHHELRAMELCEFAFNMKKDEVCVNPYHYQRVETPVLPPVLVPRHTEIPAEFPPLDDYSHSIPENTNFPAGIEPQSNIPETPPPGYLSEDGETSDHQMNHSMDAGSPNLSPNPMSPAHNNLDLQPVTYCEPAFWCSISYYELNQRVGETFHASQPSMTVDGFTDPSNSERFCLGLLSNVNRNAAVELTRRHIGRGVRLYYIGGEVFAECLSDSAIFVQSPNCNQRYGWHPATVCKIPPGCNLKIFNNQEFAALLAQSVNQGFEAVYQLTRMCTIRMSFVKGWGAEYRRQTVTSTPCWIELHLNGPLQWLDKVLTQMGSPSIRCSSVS

B1: let-7d promoter EMSA probe (dsDNA)
DNA 1: GATAATTAAATGTTAAAAGTCAGC
DNA 2: GCTGACTTTTAACATTTAATTATC
  binding result: binds
